Consider two molecules from patent EP4711453A1, “PHENYLALANINE LYASE MUTANT, AND CONJUGATE THEREOF OR PHARMACEUTICALLY ACCEPTABLE SALT THEREOF” (Peg-Bio Biopharm Co., Ltd. (Chongqing), priority 2023, dated 2024).

One series has as its system anti-PEG-IgG. Also on record: species or system rats. The conditions noted are these: rat, in vivo; for anti-PEG-IgG, Positive rate: sc, 0.75 mg/kg. Here is the method:
(§1) Polyethylene glycol conjugates of phenylalanine lyase or its mutant with different structures and modifier molecular weights, namely PL20, PL24, and PL54, were prepared according to the method described in Example 2. The phenylalanine lyase in PL20 has the amino acid sequence as set forth in SEQ ID NO: 1, and the polyethylene glycol has a molecular weight of 20K. The phenylalanine lyase in PL24 has the amino acid sequence as set forth in SEQ ID NO: 6, and the polyethylene glycol has a molecular weight of 2K. The phenylalanine lyase in PL54 has the amino acid sequence as set forth in SEQ ID NO: 6, and the polyethylene glycol has a molecular weight of 5K.
(§2) To evaluate the immunogenicity of PL20, PL24, and PL54 in animals, normal rats were selected and divided into 3 groups, with 6 rats per group (3 males and 3 females). Subcutaneous administration was performed at a dose of 0.75 mg/kg with PL54 (average degree of modification 13.6, 1.27 U/mg), PL24 (average degree of modification 13.3, 0.96 U/mg), and PL20 (average degree of modification 7.6, 1.14 U/mg) for the three groups, respectively. Administration was repeated 7 times, once weekly. Blood samples were collected 7 days after each administration. Serum anti-PEG-IgG and anti-PAL4 protein antibodies were detected by ELISA (refer to Example 5 for details). In the table, "1-7" indicated 7 days after the first administration, and "7-7" indicated 7 days after the seventh administration. x represented the average OD value of antibody detection by ELISA, and the positive rate represented the ratio of the number of antibody-positive animals to the total number of animals in the group. Table 6: Antibody titers in rats after multiple administrations of polyethylene glycol conjugates with different molecular weights

Series [1] is described as follows: Specific enzyme activity of phenylalanine lyase (trans-cinnamic acid formation, absorbance at 290 nm). The class given is biochemical. The conditions noted are these: polyethylene glycol conjugates; method as for the proteins. As for the experimental part:
Phenylalanine lyase specifically catalyzes the conversion of phenylalanine into trans-cinnamic acid with the release of ammonia. […] Enzyme activity is defined as the amount of enzyme required to produce 1 µmol of trans-cinnamic acid per minute in buffer (100 mmol/L Tris-HCl, pH 8.5) at room temperature (25°C) as one unit of enzyme activity.
The specific enzyme activity of phenylalanine lyase and its mutants (i.e., PAL, PAL2, PAL3, and PAL4 proteins) prepared in Example 1 was evaluated by taking an appropriate amount of test sample and diluting it to 0.4 mg/ml using assay buffer (100 mmol/L Tris-HCl, pH 8.0). 2.9 ml of substrate solution (100 mmol/L Tris-HCl, 45 mmol/L Phe, pH 8.0) was placed in a cuvette, followed by addition of 0.1 ml of diluted test solution and immediate mixing. The changes in absorbance per minute were recorded at a wavelength of 290 nm, and the specific enzyme activity was calculated according to the formula. Enzyme activity (U/mg) = (AS−AO)VN × 10^6 /εLTV1 [formula]
Where AS and AO represent the absorbance of trans-cinnamic acid at the […] of the reaction, respectively; V is the total volume (L) of the reaction system; L is the optical path length of the cuvette (cm); ε is the molar extinction coefficient of trans-cinnamic acid (10238.1 L/(mol·cm)); T is the reaction time (min); N is the dilution factor of the test sample; V1 is the volume of test sample (ml).
The enzyme activity retention rate was calculated by comparing the specific enzyme activity of phenylalanine lyase mutants with the specific enzyme activity of the phenylalanine lyase. Table 2: Specific enzyme activity of phenylalanine lyase mutants
The specific enzyme activity of the polyethylene glycol conjugates of phenylalanine lyase and its mutants prepared in Step 1 of Example 2 was determined according to the method described in Step 1 of this example. The enzyme activity retention rate was calculated by comparing the specific enzyme activity of each conjugate with its specific enzyme activity prior to PEG modification (e.g., the enzyme activity retention rate of PL5-1 = specific enzyme activity of PL5-1 / specific enzyme activity of PAL protein). Table 3: Specific enzyme activity of PEGylated phenylalanine lyase mutants

The test system of a further series is anti-PAL-IgG. The series can be described thus: Immunogenicity of conjugates with different PEG molecular weights in rats: anti-PAL-IgG (ELISA). The class given is in vivo. The conditions noted are these: 0.75 mg/kg s.c. once weekly. As for the experimental part: as §1, §2
[2] abbreviates: 1-7 (7 days after the first administration).
[3] abbreviates: 1-7, antibody-positive animals / animals in the group.
Setting [4] is: 7-7 (7 days after the seventh administration).
Where [5] appears, read: 7-7, antibody-positive animals / animals in the group.

For “PL20: polyethylene glycol conjugate of phenylalanine lyase SEQ ID NO: 1, polyethylene glycol molecular weight 20K, average degree of modification 7.6 [reference compound]”, the “anti-PEG-IgG antibody titer, comparison between groups” value with anti-PEG-IgG was “higher than that in the PL24 and PL54 groups”. The “anti-PEG-IgG, Positive rate” value with anti-PEG-IgG was “Positive rate: 6/6”. In addition, in series [1], the Specific enzyme activity came to 1.14 U/mg. Moreover, the results for the “anti-PAL-IgG, x (average OD value of antibody detection by ELISA)” value with anti-PAL-IgG (setting [2]) and in the series with anti-PAL-IgG (setting [4]) were “x=0.118” and “x=0.102”, respectively. Besides, the “anti-PAL-IgG, Positive rate” value in the series on anti-PAL-IgG (setting [3]) and in the series on anti-PAL-IgG (setting [5]) was “Positive rate: 1/6” in each case.

B1: PL24: polyethylene glycol conjugate of phenylalanine lyase mutant SEQ ID NO: 6, polyethylene glycol molecular weight 2K, average degree of modification 13.3 (conjugate)
chain: MKTLSQAQSKTSSQQFSFTGNSSANVIIGNQKLTINDVARVARNGTLVSLTNNTDILQGIQASCDYINNAVKSGEPIYGVTSGFGGMANVAISREQASELQTNLVWFLKTGAGNKLPLADVRAAMLLRANSHMRGASGIRLELIKRMEIFLNAGVTPYVYEFGSIGASGDLVPLSYITGSLIGLDPSFKVDFNGKEMDAPTALRQLNLSPLTLLPKEGLAMMNGTSVMTGIAANCVYDTKILTAIAMGVHALDIQALNGTNQSFHPFIHNSKPHPGQLWAADQMISLLANSQLVRDELDGKHDYRDHELIQDRYSLRCLPQYLGPIVDGISQIAKQIEIEINSVTDNPLIDVDNQASYHGGNFLGQYVGMGMDHLRYYIGLLAKHLDVQIALLASPEFSNGLPPSLLGNRERKVNMGLKGLQICGNSIMPLLTFYGNSIADRFPTHAEQFNQNINSQGYTSATLARKSVDIFQNYVAIALMFGVQAVDLRTYKKTGHYDARASLSPATERLYSAVRHVVGQKPTSDRPYIWNDNEQGLDEHIAKISADIAAGGVIVQAVQDILPSLH
modifications: PEG 2K conjugate, ~13.3 PEG per molecule
Take B1: in the series on anti-PEG-IgG, the “anti-PEG-IgG, Positive rate” value was “Positive rate: 6/6”. The Specific enzyme activity in series [1] was found to be 0.96 U/mg. Also, the “anti-PAL-IgG, x (average OD value of antibody detection by ELISA)” value in the series with anti-PAL-IgG (setting [2]) is reported as “x=0.130”; in the series on anti-PAL-IgG (setting [4]), “x=0.891”. Besides, the “anti-PAL-IgG, Positive rate” value is reported as “Positive rate: 4/6” in the series on anti-PAL-IgG (setting [3]) and “Positive rate: 6/6” with anti-PAL-IgG (setting [5]).
